From the nanobody polyreactivity screen of Harvey et al. (2022)

Assay: yeast display, Sf9 membrane polyspecificity reagent, FACS + sequencing; frameworks hold sequencing errors
Method in brief: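 Nanobodies came from a synthetic yeast display library in Saccharomyces cerevisiae BJ5465, induced with galactose for 36–48 hours and stained for 1 hour at 4 °C with 10% biotinylated, detergent-solubilized Sf9 membrane reagent. Cells were enriched on streptavidin microbeads and then FACS-sorted, with low and high (top ~1%) gates set on anti-HA fluorescence for expression and streptavidin fluorescence for reagent binding. Each polyreactivity label reflects the gate a clone came from. Genes were amplified by colony PCR, sequenced by MiSeq 2 × 250 and filtered by CDR length.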

Sequence | polyreactivity (PSR sort gate)
QVQLVESGGGLVQAGGSLRLSCAASGSTFYYYAMGWYRQAPGKDRELVAAISKRDGRTYYADSVKGRFTISRDNAKNTVYLQMNSLKPEDTAVYYCNAYSYGHYYWGQGTQVTVSS | high polyreactivity
QVQLVESGGGLVQAGGSLRLSCAASGSTFYYYAMGWYRQAPGKEMELVAAINWSGASTYYADSVKGRFTISRDNAKNTVYLQMNSLIPEDTAVYYCAAGYAGGYGVTFDYCGQGTQVTVSS | low polyreactivity
QVQLVESGGGLVQAGGSLRLSCAASGSTFYYYAMGWYRQAPGKEREFVAAITFRGGSTYYADSVKGRFTISRDNAKNTVYLQMNSLKPEDTAVYYCAAKPPFRNYVRYDYWGQGTQVTVSS | high polyreactivity
QVQLVESGGGLVQAGGSLRLSCAASGSTFYYYAMGWYRQAPGKEREFVASISSRGTSTYYADSVKGRFTISRDHAKNTVYLQMNSMKPEDTAVYYCAARGWGPTRAYDYWGQGTQVTVSS | high polyreactivity
QVQLVESGGGLVQAGGSLRLSCAASGSTFYYYAMGWYRQAPGKERELFATINKNVGITYYADSVKGRFTISRDNAKNTVYLQRNSMKTEVTAVDYCAAHGRINPDGPRTVFFASEEDYWGQGTQVTVSS | low polyreactivity
QVQLVESGGGLVQAGGSLRLSCAASGSTFYYYAMGWYRQAPGKERELVAAINSGGRTNYADSVKGRFTISRDNAKNTVYLQMNSLKPEDTAVYYCAKRTYPYGTYRSVWGYDYWGQGTQVTVSS | low polyreactivity
QVQLVESGGGLVQAGGSLRLSCAASGSTFYYYAMGWYRQAPGKERELVAAISVRAGITYYADSVKGRFTISRDNAKNTVYLQMNSLKPEDTAVYYCAKDHWTTSSDEGDYWGQGTQVTVSS | low polyreactivity
QVQLVESGGGLVQAGGSLRLSCAASGSTFYYYAMGWYRQAPGKERELVARITWIGGSTYYADSVKGRFTISRDNAKNTVYLQMNSLKPEDTAVYYCAAGWYRRIYGGWGYDYWGQGTQVTVSS | low polyreactivity
QVQLVESGGGLVQAGGSLRLSCAASGSTFYYYAMGWYRQAPGKERELVAVISWGGGSTYYADSVKGRFTISRDNAKNTVYLQMNSLKPEDTAVYYCAAVYDEYQTTHEYDYWGQGTQVTVSS | low polyreactivity
QVQLVESGGGLVQAGGSLRLSCAASGSTFYYYAMGWYSPAPGKERELVAAISRGGGSTNYADSVKGRFTISRDNAKNTVYLQMNSLKPEDTAVYYCATDYKYYGRPYNYWGQGTQVTVSS | high polyreactivity
QVQLVESGGGLVQAGGSLRLSCAASGSTFYYYTMGWYRQAPGKERELVAISWDGDSTYYADSVKGRFTISRDNAKNTVYLQMNSLKPEDTAVYYCAAADYYLPDDVSDYVDANFDYWGQGTQVTVSS | low polyreactivity
QVQLVESGGGLVQAGGSLRLSCAASGSTGFYGMGWYRQAPGKERELVAAITFRSGSTYYADSVKGRFTISRDNAKNTVYLQMNSLKPEDTAVYYCAAYSFNNGHRYDYWGQGTQVTVSS | high polyreactivity
QVQLVESGGGLVQAGGSLRLSCAASGSTIDGYAMGWYRQAPRKERELVAAITFDGSSTYYADSVKGRFTISRDNAKNTVYLQMNSLKPEVTAVYYCAAASSYWVLWDDYWGQGTQVTVSS | low polyreactivity
QVQLVESGGGLVQAGGSLRLSCAASGSTIDTYAMGWYRQAPGKERELVAGISWSGGSTFYADSVKGRFTISRDNAKNTVYLQMNSLKPEDTAVYYCAKQLWVGVKYDYWGQGTQVTVSS | low polyreactivity
QVQLVESGGGLVQAGGSLRLSCAASGSTIEANAMGWYRQAPGKERELVAVNTWTGGSTYYADSVKGRFTISRDNAKNTVYLQMNSLKPEDTAVYYCAADGVVPGRFFWPAHEYDYWGQGTQVTVSS | low polyreactivity
QVQLVESGGGLVQAGGSLRLSCAASGSTIFENVMGWYRQAPGKEREFVAAINTSGGSTYYADSVKGRFTISRDNAKYTVYLQMNSLKPEDTAVYYCARDSYWEMDYWGQGTQVNVSS | low polyreactivity
QVQLVESGGGLVQAGGSLRLSCAASGSTIFFNAMGWYRQAPGKERELVAGISSSGGSTHYADSVKGRFTISRDNAKNTVYLQMNSLKPEDTAVYYCNAQQYLPSEGDYWGQGTQVTVSS | low polyreactivity
